Values belong to the molecule of their own block, whether it stands above or below them. Where no end group is shown, it is not given here.
Legend:
[1] = target: T1, CD47 overexpressing Jurkat cells (Homo sapiens, UniProt Q08722); test: Competitive binding assay on CD47 overexpressing Jurkat cells; settings: for IC50: against FITC-conjugated anti-CD47 B6H12.2 at ~33.3 nM, 3 h on ice; for increase of avidity compared to SIRPα monomer: ratio of IC50 values
T1 construct: endogenous in cells; host or cells: Jurkat cells
Experimental: This assay is to measure the binding avidity of multivalent PEG-SIRPα IgV pharmacophores to CD47 overexpressing Jurkat cells by competing against FITC-conjugated CD47 blocking antibody, and to compare the avidity to the affinity of wide-type SIRPα ectodomain.
FITC-conjugated mouse anti-human CD47 monoclonal antibody (Clone B6H12.2, Invitrogen) at the final concentration of 0.5 μg/100 μL (˜33.3 nM) was mixed with titrated concentration (from 0.04 nM to 10.5 μM in Stain Buffer) of SIRPα monomer (Acro Biosystems), 4-arm PEG-2K SIRPα IgV and 6-arm PEG-3.4K SIRPα IgV, both wide-type and Q67R mutant forms. The mixture was added into Jurkat cells (500,000 cells in 100 μL, final density). After incubation on ice for 3 h with occasional mixing, the cells were washed to remove the unbound reagents. The fluorescence intensity of FITC was quantified by flow cytometry. The increase of the binding activity for multivalent PEG-SIRPα IgV pharmacophores compared to SIRPα monomer can be calculated.

[2] = target: T2, human red blood cells (RBCs) (Homo sapiens, UniProt Q08722); test: Competitive binding assay on human red blood cells; settings: either wide-type or mutant SIRPα IgV; antibody at ~33.3 nM; titration up to 200 nM
T2 construct: from tissue; host or cells: red blood cells from human whole blood of healthy donors
Experimental: To assess the risks from binding of multivalent PEG-SIRPα IgV pharmacophores to normal RBCs and subsequent anemia as has been reported for many CD47 targeting agents, a similar competitive binding assay as (4) above is conducted using RBCs as the binding targets.
Human whole blood from healthy donors was drawn into sodium heparin tube. The blood was washed 3 times with PBS and diluted in Stain Buffer (0.5×10^6 RBCs in 100 μL, final density). The competitive binding was performed by incubating RBCs with FITC-conjugated CD47 blocking antibody (Clone B6H12.2, Invitrogen) at the final concentration of 0.5 μg/100 μL (˜33.3 nM) and titrated concentration of 4-arm, or 6-arm PEG-SIRPα IgV as described above, or an unconjugated CD47 blocking antibody (B6H12.2, Invitrogen). A mouse isotype IgG1 was used as a negative control. RBCs were incubated with the reagents on ice for 3 h, mixing occasionally. After washing, the fluorescence intensity of FITC on RBCs was quantified by flow cytometry.

[3] = target: T3, uPAR on cells (uPAR overexpressing Hela, HT-1080, H1299, SW480 and PC3 cells) (human, UniProt Q03405 23-305); test: competitive flow cytometry on uPAR overexpressing Hela cells against PE-VIM5 at ~33.33 nM
T3 construct: whole, on cells; also called CD87; overexpressed uPAR
Experimental: Hela cells were detached from culture flasks by trypsin/EDTA, resuspended in complete culture medium in a 50 mL conical tube, and incubated for 1 h at 37° C. in 5% CO₂ incubator to allow receptor recovery. […] The mixture was added into Hela cells (500,000 cells in 100 μL; final density). After incubation on ice for 3 h with occasional mixing, the cells were washed to remove the unbound test reagents.

T1 sequence (Q08722 19-323): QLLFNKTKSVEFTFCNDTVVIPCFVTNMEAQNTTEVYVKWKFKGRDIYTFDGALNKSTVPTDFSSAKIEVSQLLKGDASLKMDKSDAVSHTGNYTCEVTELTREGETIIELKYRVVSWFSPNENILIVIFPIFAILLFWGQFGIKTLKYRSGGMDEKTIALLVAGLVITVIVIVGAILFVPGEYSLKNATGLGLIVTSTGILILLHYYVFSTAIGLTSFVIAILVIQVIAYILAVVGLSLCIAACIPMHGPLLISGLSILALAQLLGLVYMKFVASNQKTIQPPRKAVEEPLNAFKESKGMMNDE
T2 sequence (Q08722 19-323): as above
T3 sequence (Q03405 23-305): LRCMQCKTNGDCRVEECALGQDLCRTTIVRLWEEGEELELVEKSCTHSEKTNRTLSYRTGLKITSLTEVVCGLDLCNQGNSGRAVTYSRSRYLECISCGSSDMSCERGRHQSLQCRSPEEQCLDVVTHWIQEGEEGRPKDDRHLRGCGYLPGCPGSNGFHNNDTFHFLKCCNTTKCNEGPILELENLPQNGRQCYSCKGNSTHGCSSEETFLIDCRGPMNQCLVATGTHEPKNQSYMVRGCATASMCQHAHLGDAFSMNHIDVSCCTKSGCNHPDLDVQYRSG

B5: 6-arm PEG-SIRPα IgV: 6 units of SIRPα IgV-like domain conjugated to 6-arm PEG-3.4K; wide-type or Q67R mutant not specified (conjugate)
chain: EEELQVIQPDKSVLVAAGETATLRCTATSLIPVGPIQWFRGAGPGRELIYNQKEGHFPRVTTVSDLTKRNNMDFSIRIGNITPADAGTYYCVKFRKGSPDDVEFKSGAGTELSVRA
competitive binding to RBCs against FITC-conjugated CD47 blocking antibody [2]: did not compete

B6: 4-arm PEG-SIRPα IgV: 4 units of SIRPα IgV-like domain conjugated to 4-arm PEG-2K; wide-type or Q67R mutant not specified (conjugate)
chain: EEELQVIQPDKSVLVAAGETATLRCTATSLIPVGPIQWFRGAGPGRELIYNQKEGHFPRVTTVSDLTKRNNMDFSIRIGNITPADAGTYYCVKFRKGSPDDVEFKSGAGTELSVRA
competitive binding to RBCs against FITC-conjugated CD47 blocking antibody [2]: did not compete

B7: 4-arm PEG-GFD (designed binder)
chain: VPSNCDCLNGGTCVSNKYFSNIHWCNCPKKFGGQHCEIDKSKT
modifications: not fully specified (C-terminus); ends and bridges not checked; also: four GFD units on 4-arm PEG-2K
notes: Four GFD units on 4-arm PEG-2K; Expressed in E. coli; also called tetravalent PEG-GFD pharmacophore; 4-arm PEG growth factor-like domain of uPA
IC50 [3]: 1.14 nM

B8: 6-arm PEG-GFD (designed binder)
chain: VPSNCDCLNGGTCVSNKYFSNIHWCNCPKKFGGQHCEIDKSKT
modifications: not fully specified (C-terminus); ends and bridges not checked; also: six GFD units on 6-arm PEG-3.4K
notes: Six GFD units on 6-arm PEG-3.4K; also called hexavalent PEG-GFD pharmacophore; 6-arm PEG growth factor-like domain of uPA
IC50 [3]: 0.412 nM

Continued, values first:

IC50 [1]: 8.12 nM
increase of avidity compared to SIRPα monomer [1]: about 995 folds
B1: wide-type 4-arm PEG-SIRPα IgV: 4-arm PEG-2K conjugated with wide-type SIRPα IgV-like domain (conjugate)
chain: EEELQVIQPDKSVLVAAGETATLRCTATSLIPVGPIQWFRGAGPGRELIYNQKEGHFPRVTTVSDLTKRNNMDFSIRIGNITPADAGTYYCVKFRKGSPDDVEFKSGAGTELSVRA

IC50 [1]: 1.06 nM
B2: mutant 6-arm PEG-SIRPα IgV: 6-arm PEG-3.4K conjugated with Q67R mutant SIRPα IgV-like domain (conjugate)
chain: EEELQVIQPDKSVLVAAGETATLRCTATSLIPVGPIRWFRGAGPGRELIYNQKEGHFPRVTTVSDLTKRNNMDFSIRIGNITPADAGTYYCVKFRKGSPDDVEFKSGAGTELSVRA

IC50 [1]: 0.723 nM
increase of avidity compared to SIRPα monomer [1]: ~11,174 folds
B3: wide-type 6-arm PEG-SIRPα IgV: 6-arm PEG-3.4K conjugated with wide-type SIRPα IgV-like domain (conjugate)
chain: EEELQVIQPDKSVLVAAGETATLRCTATSLIPVGPIQWFRGAGPGRELIYNQKEGHFPRVTTVSDLTKRNNMDFSIRIGNITPADAGTYYCVKFRKGSPDDVEFKSGAGTELSVRA

IC50 [1]: 10.9 nM
B4: mutant 4-arm PEG-SIRPα IgV: 4-arm PEG-2K conjugated with Q67R mutant SIRPα IgV-like domain (conjugate)
chain: EEELQVIQPDKSVLVAAGETATLRCTATSLIPVGPIRWFRGAGPGRELIYNQKEGHFPRVTTVSDLTKRNNMDFSIRIGNITPADAGTYYCVKFRKGSPDDVEFKSGAGTELSVRA

Source: patent publication US20210230248A1, “Multivalent pharmacophores for high avidity and overexpressed-target specific binding and uses thereof” (priority 2020, published 2021)
